Laboratory results taken from US20030143669.

Experiments:
[1] = system: CHO-expressed epitope-tagged, soluble human phosphodiester α-GlcNAcase
[2] = system: Insect-expressed epitope-tagged human phosphodiester α-GlcNAcase lacking the pro-sequence

## Furin
[1]
  UCE activity, % increase relative to the minus Furin samples: up to 130% increase in activity
  Western blot of cleavage (pro-UCE to mature UCE): the CHO-derived UCE is sensitive to furin cleavage as shown by the progressive conversion of the pro-UCE to the mature form
[2]
  Western blot of cleavage; UCE activity: the insect-derived UCE is not cleaved by furin as shown by the single UCE form
